Our source for the Kd, kon and EC50 values is patent US20260125455A1 (CLEVELAND CLINIC FOUNDATION, published 2026).

The target of experiment [1] is T1, human complement protein C6 (human, UniProt P13671 22-934).
T1 construct: also called human C6; C6 antigen
The experiment can be described thus: BLI (Octet RED384), antibody on Protein G biosensors, C6 0.16-10 nM, 1:1 fit, experiment 1. On the procedure: (§1) The binding of the purified chimeric molecules, MoC601 HuG4K and MoC601 HuG1KFab, was also confirmed by ELISA, where the anti-human IgG (Fab-specific) secondary reagent was used. The control mouse antibody bound as previously (EC₅₀ 0.11 nM). The EC₅₀ for purified MoC601 HuG4K (0.27 nM) was similar to that obtained for the MoC601 HuG4K supernatant sample above. […] The EC₅₀ value for the Fab molecule (0.48 nM) was higher than for the antibody, which would be expected since the Fab is unable to bind bivalently to the antigen on the well. A C6-binding assay was also set up on the Octet RED384 instrument. […] However, MoC601 MoG1K could be stably loaded onto anti-mouse Fc (AMC) biosensors. Concentrations of the mouse and chimeric antibodies were adjusted to give similar levels of loading on to the AMC and
Protein G biosensors respectively in subsequent experiments. There was no non-specific binding of C6 protein to unloaded sensors or sensors loaded with an isotype control antibody. A full kinetic experiment was run for purified MoC601 MoG1K and MoC601 HuG4K antibodies using seven concentrations of C6 (0.16-10 nM) and association and dissociation steps of 20 and 15 minutes respectively. The mouse and chimeric datasets were processed by subtracting the no antigen controls and the data were fitted to a 1:1 binding model. […]
In general terms: In BLI a coated tip is dipped into the sample, and binding shifts an interference pattern.

Experiment [2] deals with T1, human complement protein C6. As to the kind of experiment: ELISA, expression supernatant, anti-human kappa detection. The method, then: (§2) The chimeric molecules, MoC601 HuG4K and MoC601 HuG1KFab, were tested for C6 binding in the form of expression supernatants. In this experiment, the human molecules were detected with an HRP-conjugated goat anti-human kappa chain reagent, which gave relative low signals. However, the binding of both chimeric molecules to C6 was confirmed. The EC₅₀ value for MoC601 HuG4K (0.43 nM) was higher than that of the mouse antibody (0.07 nM), though this was lower than in previous experiments. A further experiment was performed to find a more suitable anti-human antibody detection reagent. MoC601 HuG4K from expression supernatant was detected with three different secondary antibodies. Both anti-human IgG Fc-specific and Fab-specific detection gave higher signals than the anti-kappa chain reagent but the Fc-specific detection yielded a very low EC₅₀ (0.03 nM).
For orientation: ELISA stands for enzyme-linked immunosorbent assay.

The target is the same in experiment [3]. The experiment can be described thus: ELISA, expression supernatant, anti-human IgG Fc-specific detection. On the procedure: as §2
Experiment [4] shares this target. The experiment can be described thus: C6-binding ELISA, A650 nm; sample 'mouse serum' (28 days at 37 C). On the procedure: (§3) For the serum stability assessment, samples of the purified candidate antibodies are normally incubated in mouse, human and cynomolgus serum at 37 C for 28 days and then tested in an antigen-binding ELISA. Since the anti-C6 antibodies are expected to bind to both human and cynomolgus C6 but not mouse C6, we anticipated that incubating in human or cynomolgus sera would reduce ELISA binding due to occupation of the antibody binding sites by C6 protein from the sera. Therefore, the chimeric and humanized antibodies were tested with human and mouse sera and with human sera from which the C6 protein has been depleted. […]
(§4) Binding ELISAs used Nunc Maxisorp 384-well plates, wells coated with C6, C5b,6 complex or C5 (Complement Technology Inc, TX) and goat anti-human IgG (Fab specific) peroxidase secondary antibodies (Sigma-Aldrich, A0293) for detection. For the thermal stability assay, IgG supernatants were diluted to their EC₈₀ concentration, incubated at different temperatures for 10 min and C6 binding measured by ELISA with the binding signal plotted against temperature. Kinetics of C6 binding were measured by capturing antibodies from supernatant samples using Protein G biosensors and performing a 20 min association step with 2.5 nM C6 and a 20 min dissociation step using the Octet RED96. […]

For experiment [5] the target is unchanged. The experiment can be described thus: BLI (Octet RED384), antibody on Protein G biosensors, C6 0.27-5 nM, 1:1 fit, experiment 2. On the procedure: as §1
Protein G biosensors respectively in subsequent experiments. There was no non-specific binding of C6 protein to unloaded sensors or sensors loaded with an isotype control antibody. […] The mouse and chimeric datasets were processed by subtracting the no antigen controls and the data were fitted to a 1:1 binding model. Binding curves giving Req/Rₘₐₓ ratios>90% or showing poor fitting were excluded from analysis. A second full kinetic experiment was performed with an adjusted concentration range (six points, 0.27-5 nM) and an extended dissociation step of 20 minutes.

Experiment [6] has the same target. As to the kind of experiment: C6-binding ELISA, A650 nm; sample 'human serun' (human serum, 28 days at 37 C). On the procedure:
as §3, §4

T1 sequence (P13671 22-934 limits assumed): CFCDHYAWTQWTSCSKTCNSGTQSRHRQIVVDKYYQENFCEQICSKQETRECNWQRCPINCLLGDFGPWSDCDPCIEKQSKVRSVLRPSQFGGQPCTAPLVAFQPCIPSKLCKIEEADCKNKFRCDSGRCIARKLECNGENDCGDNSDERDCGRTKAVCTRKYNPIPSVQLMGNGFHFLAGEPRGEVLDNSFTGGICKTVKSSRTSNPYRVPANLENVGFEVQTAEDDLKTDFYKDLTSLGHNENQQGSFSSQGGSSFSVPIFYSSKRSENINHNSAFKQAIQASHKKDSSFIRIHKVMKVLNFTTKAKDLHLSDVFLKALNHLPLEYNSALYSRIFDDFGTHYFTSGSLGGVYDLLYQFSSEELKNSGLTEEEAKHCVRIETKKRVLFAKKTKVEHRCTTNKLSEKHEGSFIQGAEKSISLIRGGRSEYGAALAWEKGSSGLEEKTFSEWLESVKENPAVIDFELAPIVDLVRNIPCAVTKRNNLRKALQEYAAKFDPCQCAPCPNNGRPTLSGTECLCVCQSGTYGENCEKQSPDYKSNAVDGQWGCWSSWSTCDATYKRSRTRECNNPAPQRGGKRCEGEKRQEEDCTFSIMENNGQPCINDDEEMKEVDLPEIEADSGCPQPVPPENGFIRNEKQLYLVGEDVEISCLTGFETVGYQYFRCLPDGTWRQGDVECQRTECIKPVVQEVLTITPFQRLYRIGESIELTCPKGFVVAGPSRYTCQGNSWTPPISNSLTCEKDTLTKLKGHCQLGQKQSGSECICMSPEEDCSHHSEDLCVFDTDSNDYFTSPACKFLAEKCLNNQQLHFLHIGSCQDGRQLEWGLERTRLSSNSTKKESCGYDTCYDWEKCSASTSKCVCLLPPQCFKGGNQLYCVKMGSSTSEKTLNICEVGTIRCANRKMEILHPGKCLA

B1: MoC601 HuG4K (chimeric C601 antibody) (antibody, human IgG4 S228P, kappa, V domains shown)
VH: QVQLQQSGAELVKPGASVKISCKASGYAFSDYWMNWVKQRPGKGLEWIGQIYPGDDDTNYNGKFKGKATLTADKSSSTAYMQLSSLTSEDSAVYFCAREGYYGYTYVEYFDVWGTGTTVTVSS
VL: QIVLTQSPAIMSVSPGEKVTLTCSASSSVSYMHWYQQKSGTSPKRWIYDTSKLASGVPARFSGSGSGTSYSLTISSMEAEDAATYYCQQWTSNPLTFGAGTKLELRR
notes: also called chimeric antibody; chimeric 1C9
What is called Kd is the equilibrium constant for the complex coming apart. A higher Kd goes with lower affinity. By kon is commonly meant a measure of how fast the partners come together. A high value points to fast association. For orientation: EC50 means the concentration at which the effect is half-maximal. For B1, the equilibrium dissociation constant (Kd) in experiment [1] turned out to be 360 pM; in experiment [5] it was 350 pM. The kon in experiment [1] and in experiment [5] was 690000 M⁻¹ s⁻¹ throughout. Moreover, the EC50 in experiment [2] is 430 pM; in experiment [3] it was 30 pM; in experiment [4], 190 pM.

B2: C601HFKC4 HuG4K (antibody, human IgG4 S228P, kappa)
heavy: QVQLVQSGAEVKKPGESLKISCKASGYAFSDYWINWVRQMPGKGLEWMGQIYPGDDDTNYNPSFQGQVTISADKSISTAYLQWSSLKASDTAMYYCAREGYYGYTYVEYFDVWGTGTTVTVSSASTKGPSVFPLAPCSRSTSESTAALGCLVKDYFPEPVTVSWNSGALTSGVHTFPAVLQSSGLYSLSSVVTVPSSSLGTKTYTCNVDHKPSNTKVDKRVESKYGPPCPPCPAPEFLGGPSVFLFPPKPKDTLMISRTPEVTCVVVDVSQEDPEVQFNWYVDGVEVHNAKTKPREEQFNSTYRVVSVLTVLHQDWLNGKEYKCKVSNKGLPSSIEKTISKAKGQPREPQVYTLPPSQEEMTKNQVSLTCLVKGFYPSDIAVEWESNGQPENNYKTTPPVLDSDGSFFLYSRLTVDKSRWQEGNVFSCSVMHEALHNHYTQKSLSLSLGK
light: QIVLTQSPATLSLSPGERATLSCRASSSVSYLHWYQQKPGQSPRLWIYDTSKRATGIPARFSGSGSGTDYTLTISSLEPEDFAVYYCQQWTSNPLTFGQGTKLEIKRTVAAPSVFIFPPSDEQLKSGTASVVCLLNNFYPREAKVQWKVDNALQSGNSQESVTEQDSKDSTYSLSSTLTLSKADYEKHKVYACEVTHQGLSSPVTKSFNRGEC
notes: also called 3713; clone 3713
For the molecule B2, in experiment [6], a half-maximal effect (EC50) was put at 190 pM.
